# Experimental data taken from patent US11213590B2, “SSTR-targeted conjugates and particles and formulations thereof” (priority 2016, dated 2022).
# Marks after values point to notes of the source that are not given here.
# How the values were obtained:
# [1] = In vivo cardiovascular and respiratory evaluation; parameters: species or system beagle dog
# Method: This study was conducted to evaluate the potential cardiovascular and respiratory effects of Conjugate 57 in conscious freely moving naïve male beagle dogs.
# Assessments of cardiovascular and respiratory effects and general toxicity were based on mortality, clinical observations, body weight, body temperature, cardiovascular evaluations, i.e., blood pressure (systolic, diastolic, and mean arterial pressures), heart rate, the ECG (QRS duration and the RR, PR, QT, and Corrected QT [QTc] intervals), and respiratory evaluations (respiratory rate, tidal volume, and minute volume). The animals were monitored continuously for at least 2 hours prior to dosing and for 24 hours post dose.
# [2] = Conversion of impurities back into Conjugate 57 in acetate buffer; format: physicochemical
# Method: Two impurities present in Conjugate 57 with RRT at 1.69 and 1.70, referred to herein as Impurity A and B respectively, were identified as Conjugate 57 adducts. […] The rate of conversion of these two compounds back into Conjugate 57 is dependent on temperature. Data are provided in Table 11A and Table 11B showing this conversion at room temperature and 40° C.
# [3] = Drug substance stability study; format: physicochemical
# Method: Stability studies were carried out for Conjugate 57. The tests included in the stability protocols ensure that changes relating to appearance, strength, purity, and moisture of the drug substance are monitored through-out the shelf life of the drug substance. Endotoxins are also monitored by annual inclusion of tests for these attributes in the stability program.
# In another stability study, the following conditions were tested: 5° C.±3° C. under nitrogen and −20° C.±5° C. under nitrogen. Nitrogen was selected to prevent oxidation and assure control atmosphere during storage.
# [4] = 0.16 mg/kg iv, segment 1 (>0 to 0.25 hours post dose)
# [5] = 0.16 mg/kg iv, segment 2 (>0.25 to 6 hours post dose)
# [6] = 0.16 mg/kg iv, segment 3 (>6 to 24 hours post dose)
# [7] = 0.20 mg/kg iv, segment 1 (>0 to 0.25 hours post dose)
# [8] = 0.20 mg/kg iv, segment 2 (>0.25 to 6 hours post dose)
# [9] = 0.20 mg/kg iv, segment 3 (>6 to 24 hours post dose)
# [10] = 0.24 mg/kg iv, segment 1 (>0 to 0.25 hours post dose)
# [11] = 0.24 mg/kg iv, segment 2 (>0.25 to 6 hours post dose)
# [12] = 0.24 mg/kg iv, segment 3 (>6 to 24 hours post dose)
# [13] = Lot 1, 5° C. ± 3° C. study, Initial
# [14] = Lot 1, −20° C. ± 5° C. study, Initial
# [15] = Lot 1 stored at 5° C. ± 3° C., 3 Month
# [16] = Lot 1 stored at −20° C. ± 5° C., 3 Month
# [17] = Lot 2, 5° C. ± 3° C./Ambient RH under nitrogen, Initial
# [18] = Lot 2, 25° C. ± 2° C., 60% RH ± 5% RH study, Initial
# [19] = Lot 2 stored at 5° C. ± 3° C./Ambient RH under nitrogen, 1 Month
# [20] = Lot 2 stored at 5° C. ± 3° C./Ambient RH under nitrogen, 1 Month, preliminary identification
# [21] = Lot 2 stored at 25° C. ± 2° C., 60% RH ± 5% RH, 3 Month
structure (smiles),measurement,setting,value
COc1cc2cc(c1Cl)N(C)C(=O)C[C@H](OC(=O)[C@H](C)N(C)C(=O)CCSSC[C@H](NC(=O)[C@@H]1CSSC[C@H](NC(=O)[C@H](N)Cc3ccccc3)C(=O)N[C@@H](Cc3ccc(O)cc3)C(=O)N[C@H](Cc3c[nH]c4ccccc34)C(=O)N[C@@H](CCCCN)C(=O)N[C@@H]([C@@H](C)O)C(=O)N1)C(N)=O)[C@]1(C)O[C@H]1[C@H](C)[C@@H]1C[C@@](O)(NC(=O)O1)[C@H](OC)/C=C/C=C(\C)C2 [Conjugate 57],"Diastolic Blood Pressure, overall segment mean",[1]; [4],100.8 ± 4.1
same,"Mean Arterial Blood Pressure, overall segment mean",[1]; [4],124.0 ± 4.8
same,"Systolic Blood Pressure, overall segment mean",[1]; [4],162.8 ± 5.7
same,"Diastolic Blood Pressure, overall segment mean",[1]; [5],102.7 ± 1.5
same,"Mean Arterial Blood Pressure, overall segment mean",[1]; [5],128.6 ± 2.0
same,"Systolic Blood Pressure, overall segment mean",[1]; [5],172.2 ± 2.9
same,"Diastolic Blood Pressure, overall segment mean",[1]; [6],99.6 ± 1.9
same,"Mean Arterial Blood Pressure, overall segment mean",[1]; [6],125.7 ± 2.2
same,"Systolic Blood Pressure, overall segment mean",[1]; [6],169.2 ± 3.1
same,"Diastolic Blood Pressure, overall segment mean",[1]; [7],99.8 ± 4.2
same,"Mean Arterial Blood Pressure, overall segment mean",[1]; [7],122.7 ± 4.9
same,"Systolic Blood Pressure, overall segment mean",[1]; [7],161.1 ± 5.9
same,"Diastolic Blood Pressure, overall segment mean",[1]; [8],97.7 ± 1.5
same,"Mean Arterial Blood Pressure, overall segment mean",[1]; [8],122.6 ± 2.1
same,"Systolic Blood Pressure, overall segment mean",[1]; [8],165.7 ± 3.0
same,"Diastolic Blood Pressure, overall segment mean",[1]; [9],93.8 ± 1.9
same,"Mean Arterial Blood Pressure, overall segment mean",[1]; [9],119.4 ± 2.2
same,"Systolic Blood Pressure, overall segment mean",[1]; [9],163.4 ± 3.2
same,"Diastolic Blood Pressure, overall segment mean",[1]; [10],112.0 ± 4.1
same,"Mean Arterial Blood Pressure, overall segment mean",[1]; [10],138.7 ± 4.8
same,"Systolic Blood Pressure, overall segment mean",[1]; [10],182.0 ± 5.7
same,"Diastolic Blood Pressure, overall segment mean",[1]; [11],104.1 ± 1.5
same,"Mean Arterial Blood Pressure, overall segment mean",[1]; [11],129.8 ± 2.0
same,"Systolic Blood Pressure, overall segment mean",[1]; [11],176.3 ± 2.9
same,"Diastolic Blood Pressure, overall segment mean",[1]; [12],97.1 ± 1.9
same,"Mean Arterial Blood Pressure, overall segment mean",[1]; [12],123.5 ± 2.2
same,"Systolic Blood Pressure, overall segment mean",[1]; [12],171.1 ± 3.1
same,"blood pressure, heart rate and respiratory rate","[1]; 0.24 mg/kg, from dosing through 1.5 to 2 hours following dosing",statistically significant increases
same,"effects on QRS duration, ECG morphology, or tidal volume",[1]; any dose level tested,no test article-related effects
same,adverse effects on cardiovascular or respiratory function,"[1]; iv, male beagle dogs, doses up to and including 0.24 mg/kg",no adverse effects
same,"tolerability, clinical observations, mortality","[1]; single iv infusion over 6 minutes, 0.16, 0.20 and 0.24 mg/kg, male beagle dogs",generally well tolerated
same,Total (sum of Conjugate 57 and impurities A and B),"[2]; 40° C., 0 hr",98.6%
same,content during conversion of impurities,"[2]; 40° C., 0 hr",94.6%
same,Total (sum of Conjugate 57 and impurities A and B),"[2]; 40° C., 1.4 hr",98.7%
same,content during conversion of impurities,"[2]; 40° C., 1.4 hr",97.9%
same,Total (sum of Conjugate 57 and impurities A and B),"[2]; 40° C., 8.4 hr",98.8%
same,content during conversion of impurities,"[2]; 40° C., 8.4 hr",98.5%
same,Total (sum of Conjugate 57 and impurities A and B),"[2]; room temperature, 0 hr",98.6%
same,content during conversion of impurities,"[2]; room temperature, 0 hr",94.6%
same,Total (sum of Conjugate 57 and impurities A and B),"[2]; room temperature, 9.0 hr",98.7%
same,content during conversion of impurities,"[2]; room temperature, 9.0 hr",97.8%
same,Total (sum of Conjugate 57 and impurities A and B),"[2]; room temperature, 11.6 hr",98.8%
same,content during conversion of impurities,"[2]; room temperature, 11.6 hr",98.1%
same,Total (sum of Conjugate 57 and impurities A and B),"[2]; room temperature, 14.8 hr",98.8%
same,content during conversion of impurities,"[2]; room temperature, 14.8 hr",98.3%
same,Total (sum of Conjugate 57 and impurities A and B),"[2]; room temperature, 16.7 hr",98.8%
same,content during conversion of impurities,"[2]; room temperature, 16.7 hr",98.3%
same,degradation on storage,"[3]; 5° C.±3° and 25° C./60% Relative Humidity (RH), 3 months",Significant degradation
same,Appearance,[3]; [13],White powder
same,Assay,[3]; [13],88.2%
same,Moisture Content by KF,[3]; [13],4.3%
same,Purity (RP-HPLC),[3]; [13],98.0%
same,Total Impurities,[3]; [13],1.9%
same,Appearance,[3]; [14],White powder
same,Assay,[3]; [14],88.2%
same,Moisture Content by KF,[3]; [14],4.3%
same,Purity (RP-HPLC),[3]; [14],98.0%
same,Total Impurities,[3]; [14],1.9%
same,Appearance,[3]; [15],White powder
same,Assay,[3]; [15],88.2%
same,Purity (RP-HPLC),[3]; [15],97.4%
same,Total Impurities,[3]; [15],2.5%
same,Appearance,[3]; [16],White powder
same,Assay,[3]; [16],90.9%
same,Purity (RP-HPLC),[3]; [16],98.0%
same,Total Impurities,[3]; [16],1.9%
same,Appearance,[3]; [17],White powder
same,Assay,[3]; [17],97.0%
same,Moisture Content by KF,[3]; [17],2.1%
same,Purity (RP-HPLC),[3]; [17],98.0%
same,Total Impurities,[3]; [17],2.0%
same,Starting Materials: BT-976 content,"[3]; Lot 2, 5° C. ± 3° C./Ambient RH under nitrogen, Initial, preliminary identification by marker retention time",0.05%^a
same,Appearance,[3]; [18],White powder
same,Assay,[3]; [18],88.2%
same,Moisture Content by KF,[3]; [18],4.3%
same,Purity (RP-HPLC),[3]; [18],98.0%
same,Total Impurities,[3]; [18],1.9%
same,Appearance,[3]; [19],White powder
same,Assay,[3]; [19],94.6%
same,Moisture Content by KF,[3]; [19],1.9%
same,Purity (RP-HPLC),[3]; [19],96.6%
same,Total Impurities,[3]; [19],3.4%
same,Starting Materials: BT-976 content,[3]; [20],0.05% a
same,Starting Materials: DM1 content,[3]; [20],0.09% a
same,Appearance,[3]; [21],White powder
same,Assay,[3]; [21],78.7%
same,Purity (RP-HPLC),[3]; [21],90.8%
same,Total Impurities,[3]; [21],9.2%
same,change in purity on storage,[3]; after 3 months at −20° C.±5° C.,No significant change in purity
same,time stable,[3]; at −20° C.,at least 3 months
